{
  "source": "patent US20200199204A1",
  "about": "(UNITED STATES OF AMERICA AS REPRESENTED BY THE SECRETARY …, published 2020)",
  "assay_in_all_cases": "cell-based or functional assay",
  "key": {"[1]": {"biological_target": "HIV-1 Env of UG037.8 (HIV-1)"}, "[2]": {"biological_target": "HIV-1 Env of 3016.V5.c36 (HIV-1)"}, "[3]": {"biological_target": "HIV-1 Env of Q769.d22 (HIV-1)"}, "[4]": {"biological_target": "HIV-1 Env of 6535.3 (HIV-1)"}, "[5]": {"biological_target": "HIV-1 Env of ZM197.7 (HIV-1)"}, "[6]": {"biological_target": "HIV-1 Env of TRO.11 (HIV-1)"}, "[7]": {"biological_target": "HIV-1 Env of 96ZM651.02 (HIV-1)"}, "[8]": {"biological_target": "HIV-1 Env of ZM109.4 (HIV-1)"}, "[9]": {"biological_target": "HIV-1 Env of PVO.04 (HIV-1)"}, "[10]": {"biological_target": "HIV-1 Env of RW020.2 (HIV-1)"}, "[11]": {"biological_target": "HIV-1 Env of AC10.29 (HIV-1)"}, "[12]": {"biological_target": "HIV-1 Env of C1080.c3 (HIV-1)"}, "[13]": {"biological_target": "HIV-1 Env of KER2008.12 (HIV-1)"}, "[14]": {"biological_target": "HIV-1 Env of ZM135.10a (HIV-1)"}, "[15]": {"biological_target": "HIV-1 Env of BG505.w6m (HIV-1)"}, "[16]": {"biological_target": "HIV-1 Env of MB539.2B7 (HIV-1)"}, "[17]": {"biological_target": "HIV-1 Env of Q259.d2.17 (HIV-1)"}, "[18]": {"biological_target": "HIV-1 Env of CAAN.A2 (HIV-1)"}, "[19]": {"biological_target": "HIV-1 Env of REJO.67 (HIV-1)"}, "[20]": {"biological_target": "HIV-1 Env of CAP256.PI (HIV-1)"}, "[21]": {"biological_target": "HIV-1 Env of WITO.33 (HIV-1)"}, "[22]": {"biological_target": "HIV-1 Env of SC422.8 (HIV-1)"}, "[23]": {"biological_target": "HIV-1 Env of DU172.17 (HIV-1)"}, "[24]": {"biological_target": "HIV-1 Env of Q461.e2 (HIV-1)"}, "[25]": {"biological_target": "HIV-1 Env of TRJO.58 (HIV-1)"}, "[26]": {"biological_target": "HIV-1 Env of CAP45.G3 (HIV-1)"}, "[27]": {"biological_target": "HIV-1 Env of ZM249.1 (HIV-1)"}, "[28]": {"biological_target": "HIV-1 Env of THRO.18 (HIV-1)"}, "[29]": {"biological_target": "HIV-1 Env of CAP210.E8 (HIV-1)"}, "[30]": {"biological_target": "HIV-1 Env of CAP256.SU (HIV-1)"}, "[31]": {"biological_target": "HIV-1 Env of 0260.v5.c36 (HIV-1)"}, "[32]": {"biological_target": "HIV-1 Env of CM244.ec1 (HIV-1)"}, "[33]": {"biological_target": "HIV-1 Env of ZM214.15 (HIV-1)"}, "[34]": {"biological_target": "HIV-1 Env of MB201 (HIV-1)"}, "[35]": {"biological_target": "HIV-1 Env of ZM53.12 (HIV-1)"}, "[36]": {"biological_target": "HIV-1 Env of 191821.E6.1 (HIV-1)"}, "[37]": {"biological_target": "HIV-1 Env of QH0692.42 (HIV-1)"}, "[38]": {"biological_target": "HIV-1 Env of DU422.01 (HIV-1)"}, "[39]": {"biological_target": "HIV-1 Env of CAP244.D3 (HIV-1)"}, "[40]": {"biological_target": "HIV-1 Env of RHPA.7 (HIV-1)"}, "[41]": {"biological_target": "HIV-1 Env of Q168.a2 (HIV-1)"}, "[42]": {"biological_target": "HIV-1 Env of Q842.d12 (HIV-1)"}, "[43]": {"biological_target": "HIV-1 Env of Q23.17 (HIV-1)"}, "[44]": {"biological_target": "HIV-1 Env of DU156.12 (HIV-1)"}, "[45]": {"biological_target": "HIV-1 Env of KER2018.11 (HIV-1)"}, "[46]": {"biological_target": "HIV-1 Env of 6405.v4.c34 (HIV-1)"}},
  "data": [
    {"binder": "CAP256-VRC26.08 (antibody, V domains shown) VH: EVQLVESGGGVVQPGRSLTLSCAASQFTFSNYGMHWVRQAPGKGLEWVASVSNDGTKKYHGDSVWGRFTISRDNSKNTLFLQMSSLRAEDTAVYFCVRDQREDECEEWWSDYYDFGRELPCRKFRGLGLAGIFDIWGHGTMVTVSS VL: QSALTQPPSVSAAPGQKVTISCSGNSSNIGNNFVSWYQQVPGTAPKLLLYETYRRPSGIPDRFSGSKSGTSATLAITGLQTGDEADYYCTVWGVRKGVGAVFGTGTKVTVLG", "values": [
      {"measurement": "neutralization IC50", "setting": "[1]", "result": "> 50", "unit": "µg/mL"},
      {"measurement": "neutralization IC50", "setting": "[2]", "result": 0.013, "unit": "µg/mL"},
      {"measurement": "neutralization IC50", "setting": "[3]", "result": "> 50", "unit": "µg/mL"},
      {"measurement": "neutralization IC50", "setting": "[4]", "result": "> 50", "unit": "µg/mL"},
      {"measurement": "neutralization IC50", "setting": "[5]", "result": 0.008, "unit": "µg/mL"},
      {"measurement": "neutralization IC50", "setting": "[6]", "result": "> 50", "unit": "µg/mL"},
      {"measurement": "neutralization IC50", "setting": "[7]", "result": 2.82, "unit": "µg/mL"},
      {"measurement": "neutralization IC50", "setting": "[8]", "result": "> 50", "unit": "µg/mL"},
      {"measurement": "neutralization IC50", "setting": "[9]", "result": 11.8, "unit": "µg/mL"},
      {"measurement": "neutralization IC50", "setting": "[10]", "result": "> 50", "unit": "µg/mL"},
      {"measurement": "neutralization IC50", "setting": "[11]", "result": "> 50", "unit": "µg/mL"},
      {"measurement": "neutralization IC50", "setting": "[12]", "result": 0.012, "unit": "µg/mL"},
      {"measurement": "neutralization IC50", "setting": "[13]", "result": "> 50", "unit": "µg/mL"},
      {"measurement": "neutralization IC50", "setting": "[14]", "result": "> 50", "unit": "µg/mL"},
      {"measurement": "neutralization IC50", "setting": "[15]", "result": 0.143, "unit": "µg/mL"},
      {"measurement": "neutralization IC50", "setting": "[16]", "result": 31.7, "unit": "µg/mL"},
      {"measurement": "neutralization IC50", "setting": "[17]", "result": 0.009, "unit": "µg/mL"},
      {"measurement": "neutralization IC50", "setting": "[18]", "result": "> 50", "unit": "µg/mL"},
      {"measurement": "neutralization IC50", "setting": "[19]", "result": "> 50", "unit": "µg/mL"},
      {"measurement": "neutralization IC50", "setting": "[20]", "result": "> 50", "unit": "µg/mL"},
      {"measurement": "neutralization IC50", "setting": "[21]", "result": "> 50", "unit": "µg/mL"},
      {"measurement": "neutralization IC50", "setting": "[22]", "result": "> 50", "unit": "µg/mL"},
      {"measurement": "neutralization IC50", "setting": "[23]", "result": "> 50", "unit": "µg/mL"},
      {"measurement": "neutralization IC50", "setting": "[24]", "result": 0.969, "unit": "µg/mL"},
      {"measurement": "neutralization IC50", "setting": "[25]", "result": "> 50", "unit": "µg/mL"},
      {"measurement": "neutralization IC50", "setting": "[26]", "result": 4.69, "unit": "µg/mL"},
      {"measurement": "neutralization IC50", "setting": "[27]", "result": 0.076, "unit": "µg/mL"},
      {"measurement": "neutralization IC50", "setting": "[28]", "result": "> 50", "unit": "µg/mL"},
      {"measurement": "neutralization IC50", "setting": "[29]", "result": 0.006, "unit": "µg/mL"},
      {"measurement": "neutralization IC50", "setting": "[30]", "result": 0.003, "unit": "µg/mL"},
      {"measurement": "neutralization IC50", "setting": "[31]", "result": "> 50", "unit": "µg/mL"},
      {"measurement": "neutralization IC50", "setting": "[32]", "result": 1.09, "unit": "µg/mL"},
      {"measurement": "neutralization IC50", "setting": "[33]", "result": "> 50", "unit": "µg/mL"},
      {"measurement": "neutralization IC50", "setting": "[34]", "result": "> 50", "unit": "µg/mL"},
      {"measurement": "neutralization IC50", "setting": "[35]", "result": 0.004, "unit": "µg/mL"},
      {"measurement": "neutralization IC50", "setting": "[36]", "result": 0.37, "unit": "µg/mL"},
      {"measurement": "neutralization IC50", "setting": "[37]", "result": "> 50", "unit": "µg/mL"},
      {"measurement": "neutralization IC50", "setting": "[38]", "result": 0.008, "unit": "µg/mL"},
      {"measurement": "neutralization IC50", "setting": "[39]", "result": "> 50", "unit": "µg/mL"},
      {"measurement": "neutralization IC50", "setting": "[40]", "result": "> 50", "unit": "µg/mL"},
      {"measurement": "neutralization IC50", "setting": "[41]", "result": 0.256, "unit": "µg/mL"},
      {"measurement": "neutralization IC50", "setting": "[42]", "result": 40.4, "unit": "µg/mL"},
      {"measurement": "neutralization IC50", "setting": "[43]", "result": 13.3, "unit": "µg/mL"},
      {"measurement": "neutralization IC50", "setting": "[44]", "result": 0.059, "unit": "µg/mL"},
      {"measurement": "neutralization IC50", "setting": "[45]", "result": 0.003, "unit": "µg/mL"},
      {"measurement": "neutralization IC50", "setting": "[46]", "result": "> 50", "unit": "µg/mL"}
    ]}
  ]
}
